Test results published in the supplement of paper PMC10567573.

B1: SPOPL (parent)
chain: AKREETKAMESQRAYRFVQGKDWG
B2: MNAT1 (parent)
chain: SLREYNDFLEEVEEIVFNLTNNVD

Variants of: B1
Assay: protein stability index of a GFP-peptide fusion (GPS, HEK-293T) (PSI 1-6); higher = more stable
Settings: c terminus: a fixed tail appended
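Also: lentivirally expressed fusions sorted by FACS into six bins by GFP to DsRed ratio, PSI derived from sequencing read proportions per bin multiplied by bin number.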

Protein stability index: each site, then its substitutions
G24: D 4.16; I 3; P 2.45; M 2.54; S 3.49; V 2.91; H 3.39; R 3.73; F 1.81; A 3.44; T 2.96; K 4.32; W 2.27; L 2.64; E 3.24; N 3.63; Y 2.41; Q 4.07; C 2.18
W23: H 4.77; F 3.53; Q 4.8; D 4.4; G 4.88; R 4.49; L 4.21; S 4.91; I 4.18; A 4.8; Y 4.05; N 3.65; P 4.79; T 4.86; E 5.14; K 4.87; M 4.86; C 4.9; V 4.72
Q19: A 1.15; C 2.68; K 3.43; E 2.6; D 2.54; R 3.93; L 2.15; F 3.19; W 2.38; P 3.22; S 2.44; H 3.04; T 2.73; Y 2.77; I 2.6; N 2.85; M 2.25; V 2.37
V18: Y 3.78
G20: Q 4.14; C 2.97; K 3.64; H 3.33; R 3.59; P 2.83; L 2.88; S 3.35; A 3.33; Y 3.13; T 3.41; W 2.72; D 4.06; M 2.58; F 3.49; N 3.76; I 2.73; V 3.19; E 4.31
K21: W 3.44; P 2.4; G 2.83; T 3.04; D 3.99; C 3.28; A 2.96; V 3.1; H 2.32; R 2.51; F 3.62; M 3.43; Q 3.02; S 2.67; Y 3.08; I 2.94; N 3.11; L 2.67; E 3.46
D22: I 3.4; K 3.77; A 3.14; Q 3.18; Y 2.76; F 2.94; G 3.96; W 2.55; C 3.13; N 2.74; R 4.09; V 3.82; E 3.17; L 2.94; P 3.18; T 3.86; H 3.1; M 2.95; S 3.42

Variants of: B2
Assay: as above
Settings: c terminus: a fixed tail appended

Protein stability index: each site, then its substitutions
R3: N 2.18; T 1.83; D 2.32; A 2.58; F 2.6; L 1.64; P 3.52; S 2.55; M 1.91; H 2.71; K 2.06; E 2.12; I 1.69; Q 2.94; C 1.77; G 2.78
S1: D 2.62; E 2.03; C 1.72; Q 2.81; K 1.94; A 2.1; V 2.1; N 3.35; W 2.11; M 1.82; P 3.1; T 1.85; L 1.87; H 2.24; F 2.67; I 2.23; Y 1.69; R 2.21
L2: E 3.35; G 3.08; D 3.33; Q 2.72; H 3.09; I 2.31; M 2.13; N 2.86; S 2.71; F 1.96; W 1.79; P 3.72; A 2.58; C 2.67; Y 2.36; K 2.6; R 3.65; V 2.33; T 3.01
